According to US20090060919A1 (AstraZeneca / MedImmune, published 2009):

Columns and labels:
[1] = target: T1, human IgEλ (U266 derived) (human, UniProt P01854-1 1-428); experiment: HTRF competition: scFv against Eu-cryptate human IgE binding to human FcεRI-Fc
T1 construct: Whole IgE purified from U266 cells (Ikeyama et al. 1986); labelled with europium cryptate or biotin in some assays; also called human IgE (U266-derived); human IgE lambda

[2] = target: T1, human IgEλ (U266 derived); experiment: cell-based or functional assay
[3] = target: T1, human IgEλ (U266 derived); experiment: SPR (BIAcore 2000): IgG captured on protein G', IgE as analyte, bivalent analyte model; geomean
Description: In brief, Protein G′ (Sigma Aldrich, P4689) was covalently coupled to the surface of a CM5 sensor chip using standard amine coupling reagents according to manufacturer's instructions (BIAcore). […] The resulting sensorgrams were evaluated using BIA evaluation 3.1 software and fitted to a bivalent analyte model, to provide relative binding data.

T1 sequence (P01854 other isoform, or with tags, fused parts or gaps): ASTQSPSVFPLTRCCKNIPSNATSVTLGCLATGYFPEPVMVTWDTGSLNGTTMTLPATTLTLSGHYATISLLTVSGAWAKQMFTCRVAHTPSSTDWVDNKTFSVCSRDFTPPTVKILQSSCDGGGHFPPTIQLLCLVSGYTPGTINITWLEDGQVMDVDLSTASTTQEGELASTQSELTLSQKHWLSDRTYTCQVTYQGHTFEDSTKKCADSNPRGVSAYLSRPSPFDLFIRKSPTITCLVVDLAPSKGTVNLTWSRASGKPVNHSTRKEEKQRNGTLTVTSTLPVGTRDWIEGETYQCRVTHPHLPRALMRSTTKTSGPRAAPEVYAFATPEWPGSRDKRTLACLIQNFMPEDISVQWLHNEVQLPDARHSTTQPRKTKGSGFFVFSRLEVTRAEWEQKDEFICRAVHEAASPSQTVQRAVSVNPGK

IC50 [1] [nM]	RBL-ER51 calcium signalling IC50 (Geomean), Human IgE [2] [nM]	Kd [3] [nM]	Binder
6	–	–	Antibody 22 scFv (scFv, V domains shown, Purified scFv, non-germlined) VH: QVQLVQSGAEVKKPGATVKLSCKVYGYIFTDYNIYWVRQAPGKGLEWMGLIDPDNGETFYAEKFQGRATMTADTSSDRAYMELTSLTFEDTATYYCATVTLKSAKGGYDYWGRGTLVTVSS VL: QSVLTQPPSVSGAPGQRVTISCTGSSSNIGAGYDVHWYQQLPGTAPKLLIYDNFNRPSGVPDRFSGSKSGTSASLAIIGLQTEDEADYYCQSYDSSGGYAPFGTGTKLTVL
1	–	–	Antibody 28 scFv (scFv, V domains shown, Purified scFv, non-germlined) VH: QVQLVQSGAEVKKPGATVKLSCKVYGYIFTDYNIYWVRQAPGKGLEWMGLIDPDNGETFYAEKFQGRATMTADTSSDRAYMELTSLTFEDTATYYCATVMGKWIKGGYDYWGRGTLVTVSS VL: QSVLTQPPSVSGAPGQRVTISCTGSSSNIGAGYDVHWYQQLPGTAPKLLIYDNFNRPSGVPDRFSGSKSGTSASLAIIGLQTEDEADYYCQSYDSSSLHSPFGTGTKLTVL
12	–	–	Antibody 26 scFv (scFv, V domains shown, Purified scFv, non-germlined) VH: QVQLVQSGAEVKKPGATVKLSCKVYGYIFTDYNIYWVRQAPGKGLEWMGLIDPDNGETFYAEKFQGRATMTADTSSDRAYMELTSLTFEDTATYYCATVSLKEAKGGYDYWGRGTLVTVSS VL: QSVLTQPPSVSGAPGQRVTISCTGSSSNIGAGYDVHWYQQLPGTAPKLLIYDNFNRPSGVPDRFSGSKSGTSASLAIIGLQTEDEADYYCQSYDSASRHAPFGTGTKLTVL
6	–	–	Antibody 21 scFv (scFv, V domains shown, Purified scFv, non-germlined) VH: QVQLVQSGAEVKKPGATVKLSCKVYGYIFTDYNIYWVRQAPGKGLEWMGLIDPDNGETFYAEKFQGRATMTADTSSDRAYMELTSLTFEDTATYYCATVTLKSAKGGYDYWGRGTLVTVSS VL: QSVLTQPPSVSGAPGQRVTISCTGSSSNIGAGYDVHWYQQLPGTAPKLLIYDNFNRPSGVPDRFSGSKSGTSASLAIIGLQTEDEADYYCQSYDSSSQLSPFGTGTKLTVL
9	–	–	Antibody 27 scFv (scFv, V domains shown, Purified scFv, non-germlined) VH: QVQLVQSGAEVKKPGATVKLSCKVYGYIFTDYNIYWVRQAPGKGLEWMGLIDPDNGETFYAEKFQGRATMTADTSSDRAYMELTSLTFEDTATYYCATVSLKEAKGGYDYWGRGTLVTVSS VL: QSVLTQPPSVSGAPGQRVTISCTGSSSNIGAGYDVHWYQQLPGTAPKLLIYDNFNRPSGVPDRFSGSKSGTSASLAIIGLQTEDEADYYCQSYDSPTQTSPFGTGTKLTVL
9	–	–	Antibody 24 scFv (scFv, V domains shown, Purified scFv, non-germlined) VH: QVQLVQSGAEVKKPGATVKLSCKVYGYIFTDYNIYWVRQAPGKGLEWMGLIDPDNGETFYAEKFQGRATMTADTSSDRAYMELTSLTFEDTATYYCATVTLKTAKGGYDYWGRGTLVTVSS VL: QSVLTQPPSVSGAPGQRVTISCTGSSSNIGAGYDVHWYQQLPGTAPKLLIYDNFNRPSGVPDRFSGSKSGTSASLAIIGLQTEDEADYYCQSYDSRNGYGGFGTGTKLTVL
1	–	–	Antibody 23 scFv (scFv, V domains shown, Purified scFv, non-germlined) VH: QVQLVQSGAEVKKPGATVKLSCKVYGYIFTDYNIYWVRQAPGKGLEWMGLIDPDNGETFYAEKFQGRATMTADTSSDRAYMELTSLTFEDTATYYCATVMGKWIKGGYDYWGRGTLVTVSS VL: QSVLTQPPSVSGAPGQRVTISCTGSSSNIGAGYDVHWYQQLPGTAPKLLIYDNFNRPSGVPDRFSGSKSGTSASLAIIGLQTEDEADYYCQSYDSHHLYSSFGTGTKLTVL
8	–	–	Antibody 25 scFv (scFv, V domains shown, Purified scFv, non-germlined) VH: QVQLVQSGAEVKKPGATVKLSCKVYGYIFTDYNIYWVRQAPGKGLEWMGLIDPDNGETFYAEKFQGRATMTADTSSDRAYMELTSLTFEDTATYYCATVTLKSAKGGYDYWGRGTLVTVSS VL: QSVLTQPPSVSGAPGQRVTISCTGSSSNIGAGYDVHWYQQLPGTAPKLLIYDNFNRPSGVPDRFSGSKSGTSASLAIIGLQTEDEADYYCQSYDSNHKTSPFGTGTKLTVL

Second part, the binder before the results:

Binder	IC50 [1] [nM]	RBL-ER51 calcium signalling IC50 (Geomean), Human IgE [2] [nM]	Kd [3] [nM]
Antibody 2 scFv (scFv, V domains shown, Purified scFv, non-germlined; not shown: scFv linker and any tags; the libraries are only cited to Vaughan et al. 1996) VH: QVQLVQSGAEVKKPGATVKLSCKVYGYIFTDYNIYWVRQAPGKGLEWMGLIDPDNGETFYAEKFQGRATMTADTSSDRAYMELTSLTFEDTATYYCATVSLRSAKGGYDYWGRGTLVTVSS VL: QSVLTQPPSVSGAPGQRVTISCTGSSSNIGAGYDVHWYQQLPGTAPKLLIYDNFNRPSGVPDRFSGSKSGTSASLAIIGLQTEDEADYYCQSYDSSLSGSLFGTGTKLTVL	28	–	–
Antibody 7 scFv (scFv, V domains shown, Purified scFv, non-germlined) VH: QVQLVQSGAEVKKPGATVKLSCKVYGYIFTDYNIYWVRQAPGKGLEWMGLIDPDNGETFYAEKFQGRATMTADTSSDRAYMELTSLTFEDTATYYCATVTLKSAKGGYDYWGRGTLVTVSS VL: QSVLTQPPSVSGAPGQRVTISCTGSSSNIGAGYDVHWYQQLPGTAPKLLIYDNFNRPSGVPDRFSGSKSGTSASLAIIGLQTEDEADYYCQSYDSDRRNSPFGTGTKLTVL	9	–	–
Antibody 3 scFv (scFv, V domains shown, Purified scFv, non-germlined; not shown: scFv linker and any tags; the libraries are only cited to Vaughan et al. 1996) VH: QVQLVQSGAEVKKPGATVKLSCKVYGYIFTDYNIYWVRQAPGKGLEWMGLIDPDNGETFYAEKFQGRATMTADTSSDRAYMELTSLTFEDTATYYCATVMGKWIKGGYDYWGRGTLVTVSS VL: QSVLTQPPSVSGAPGQRVTISCTGSSSNIGAGYDVHWYQQLPGTAPKLLIYDNFNRPSGVPDRFSGSKSGTSASLAIIGLQTEDEADYYCQSYDSTFNHAPFGTGTKLTVL	5	–	–
Antibody 5 IgG (antibody, V domains shown, Whole human IgG (section 1.4: IgG1)) VH: QVQLVQSGAEVKKPGATVKLSCKVYGYIFTDYNIYWVRQAPGKGLEWMGLIDPDNGETFYAEKFQGRATMTADTSSDRAYMELTSLTFEDTATYYCATVMGKWIKGGYDYWGRGTLVTVSS VL: QSVLTQPPSVSGAPGQRVTISCTGSSSNIGAGYDVHWYQQLPGTAPKLLIYDNFNRPSGVPDRFSGSKSGTSASLAIIGLQTEDEADYYCQSYDSTKHTSPFGTGTKLTVL	–	0.091	2.4
Antibody 10 scFv (scFv, V domains shown, Purified scFv, non-germlined) VH: QVQLVQSGAEVKKPGATVKLSCKVYGYIFTDYNIYWVRQAPGKGLEWMGLIDPDNGETFYAEKFQGRATMTADTSSDRAYMELTSLTFEDTATYYCATVSLRAAKGGYDYWGRGTLVTVSS VL: QSVLTQPPSVSGAPGQRVTISCTGSSSNIGAGYDVHWYQQLPGTAPKLLIYDNFNRPSGVPDRFSGSKSGTSASLAIIGLQTEDEADYYCQSYDSEQELAPFGTGTKLTVL	10	–	–
Antibody 14 scFv (scFv, V domains shown, Purified scFv, non-germlined) VH: QVQLVQSGAEVKKPGATVKLSCKVYGYIFTDYNIYWVRQAPGKGLEWMGLIDPDNGETFYAEKFQGRATMTADTSSDRAYMELTSLTFEDTATYYCATVMGKWIKGGYDYWGRGTLVTVSS VL: QSVLTQPPSVSGAPGQRVTISCTGSSSNIGAGYDVHWYQQLPGTAPKLLIYDNFNRPSGVPDRFSGSKSGTSASLAIIGLQTEDEADYYCQSYDSHHRHSPFGTGTKLTVL	8	–	–
Antibody 6 IgG (antibody, V domains shown, Whole human IgG (section 1.4: IgG1)) VH: QVQLVQSGAEVKKPGATVKLSCKVYGYIFTDYNIYWVRQAPGKGLEWMGLIDPDNGETFYAEKFQGRATMTADTSSDRAYMELTSLTFEDTATYYCATVMGKWIKGGYDYWGRGTLVTVSS VL: QSVLTQPPSVSGAPGQRVTISCTGSSSNIGAGYDVHWYQQLPGTAPKLLIYDNFNRPSGVPDRFSGSKSGTSASLAIIGLQTEDEADYYCQSYDSTMRHGPFGTGTKLTVL	–	0.096	2.1
Antibody 17 scFv (scFv, V domains shown, Purified scFv, non-germlined) VH: QVQLVQSGAEVKKPGATVKLSCKVYGYIFTDYNIYWVRQAPGKGLEWMGLIDPDNGETFYAEKFQGRATMTADTSSDRAYMELTSLTFEDTATYYCATVTLKSAKGGYDYWGRGTLVTVSS VL: QSVLTQPPSVSGAPGQRVTISCTGSSSNIGAGYDVHWYQQLPGTAPKLLIYDNFNRPSGVPDRFSGSKSGTSASLAIIGLQTEDEADYYCQSYDSQSSTSPFGTGTKLTVL	6	–	–
Antibody 9 scFv (scFv, V domains shown, Purified scFv, non-germlined) VH: QVQLVQSGAEVKKPGATVKLSCKVYGYIFTDYNIYWVRQAPGKGLEWMGLIDPDNGETFYAEKFQGRATMTADTSSDRAYMELTSLTFEDTATYYCATVTLRSAKGGYDYWGRGTLVTVSS VL: QSVLTQPPSVSGAPGQRVTISCTGSSSNIGAGYDVHWYQQLPGTAPKLLIYDNFNRPSGVPDRFSGSKSGTSASLAIIGLQTEDEADYYCQSYDSPSSTSPFGTGTKLTVL	9	–	–
Antibody 18 scFv (scFv, V domains shown, Purified scFv, non-germlined) VH: QVQLVQSGAEVKKPGATVKLSCKVYGYIFTDYNIYWVRQAPGKGLEWMGLIDPDNGETFYAEKFQGRATMTADTSSDRAYMELTSLTFEDTATYYCATVLLRSAKGGYDYWGRGTLVTVSS VL: QSVLTQPPSVSGAPGQRVTISCTGSSSNIGAGYDVHWYQQLPGTAPKLLIYDNFNRPSGVPDRFSGSKSGTSASLAIIGLQTEDEADYYCQSYDSHLQLSPFGTGTKLTVL	11	–	–
Antibody 4 IgG (antibody, V domains shown, Whole human IgG (section 1.4: IgG1)) VH: QVQLVQSGAEVKKPGATVKLSCKVYGYIFTDYNIYWVRQAPGKGLEWMGLIDPDNGETFYAEKFQGRATMTADTSSDRAYMELTSLTFEDTATYYCATVMGKWIKGGYDYWGRGTLVTVSS VL: QSVLTQPPSVSGAPGQRVTISCTGSSSNIGAGYDVHWYQQLPGTAPKLLIYDNFNRPSGVPDRFSGSKSGTSASLAIIGLQTEDEADYYCQSYDSRGGHSPFGTGTKLTVL	–	0.088	2.1
Antibody 15 scFv (scFv, V domains shown, Purified scFv, non-germlined) VH: QVQLVQSGAEVKKPGATVKLSCKVYGYIFTDYNIYWVRQAPGKGLEWMGLIDPDNGETFYAEKFQGRATMTADTSSDRAYMELTSLTFEDTATYYCATVTLKTAKGGYDYWGRGTLVTVSS VL: QSVLTQPPSVSGAPGQRVTISCTGSSSNIGAGYDVHWYQQLPGTAPKLLIYDNFNRPSGVPDRFSGSKSGTSASLAIIGLQTEDEADYYCQSYDSHKGYGGFGTGTKLTVL	7	–	–
